Assay results published in article PMC12187079 (Nature, 2024).

Tests used:
Assay in all cases: immunostaining of cells or tissue
Details in all cases: one partner purified
BANAL-20-52 NTD-mFc = BANAL-20-52 NTD-mFc (Bat coronavirus BANAL-20-52/Laos/2020 …)
SARS-CoV-2 NTD-mFc = SARS-CoV-2 NTD-mFc (SARS-CoV-2 Wuhan-Hu-1 (NC_045512))
RaTG13 NTD-mFc = RaTG13 NTD-mFc (Bat coronavirus RaTG13 (MN996532))

Measured: binding result

B1: S2L20-CVR (receptor)
VH: EVQLVESGGGVVQPGGSLRLSCAASGFTFNSYGMHWVRQAPGKGLEWVAFIRYDGGNKYYADSVKGRFTISRDNSKNTLYLQMKSLRAEDTAVYYCANLKDSRYSGSYYDYWGQGTLVTVS
VL: not shown
notes: also called HEK293T-S2L20-CVR; source: HEK293T, stably expressing (lentiviral transduction), on cells
binds: all assays above
